Test results from the Human Domainome abundance scans (Beltran et al. 2025).
± gives the uncertainty stated by the source.

B1: Gamma-crystallin C, residues 4 to 79; numbered along this chain, P07315 (parent)
chain: ITFYEDRAFQGRSYETTTDCPNLQPYFSRCNSIRVESGCWMLYERPNYQGQQYLLRRGEYPDYQQWMGLSDSIRSC

Variants of: B1
Experiment: abundance fitness (aPCA) (normalised: wild type 0, dead -1); higher = more abundant; growth selection in yeast, the domain comes from the species named
Conditions: Homo sapiens
ITFYEDRAFQGRSYETTTDCSNLQPYFSRCNSIRVESGCWMLYERPNYQGQQYLLRRGEYPDYQQWMGLSDSIRSC [P21S] gave an abundance fitness of -0.19 ± 0.083.
For ITFYEDRAFQGRSYETTTDCPNLQPYFSRCSSIRVESGCWMLYERPNYQGQQYLLRRGEYPDYQQWMGLSDSIRSC [N31S], the abundance fitness was -0.019 ± 0.24.
ITFYEDRAFQGRSYETTTDCPNLQPYFSRCNSIRVEVGCWMLYERPNYQGQQYLLRRGEYPDYQQWMGLSDSIRSC [S37V] showed an abundance fitness of 0.066 ± 0.13.
For ITFYEDRAFQGRSYETTTDCPNLFPYFSRCNSIRVESGCWMLYERPNYQGQQYLLRRGEYPDYQQWMGLSDSIRSC [Q24F], the abundance fitness was -0.14 ± 0.19.
Work on ITFYEDRAFQGRSYETTTDCPNLDPYFSRCNSIRVESGCWMLYERPNYQGQQYLLRRGEYPDYQQWMGLSDSIRSC [Q24D] yielded an abundance fitness of 0.13 ± 0.47.
For ITFYEDRAFQGRSYETTTDCPNLEPYFSRCNSIRVESGCWMLYERPNYQGQQYLLRRGEYPDYQQWMGLSDSIRSC [Q24E], the abundance fitness was 0.125 ± 0.19.
Variant ITFYEDRAFQGRSYETTTDCPNLQPYFSRCNSIRVESGSWMLYERPNYQGQQYLLRRGEYPDYQQWMGLSDSIRSC [C39S] has an abundance fitness of 0.062 ± 0.094.
With ITFYEDRAFQGRSYETTTDCPNLQPYFSRCNSIRVESGCWMLYERPNYQGQQYLLRRGEYPDYYQWMGLSDSIRSC [Q64Y] the abundance fitness was -0.182 ± 0.14.
In the case of ITFYEDRAFQGRSYETTTDCPNLQPYFSRCNSIRVESGCWMLYERPNYQGQQQLLRRGEYPDYQQWMGLSDSIRSC [Y53Q], the abundance fitness is reported as -0.094 ± 0.096.
In the case of ITFYEDRAFQGRSYETTTDCPNLQPYFSRCNSIRVESGCWMLYERPNYQGQQRLLRRGEYPDYQQWMGLSDSIRSC [Y53R], the abundance fitness is reported as -0.019 ± 0.058.
Variant ITFYEDRAFQGRSYETTTDCPNLQPYFSRCNSIRVESGCWMLYERPNYQLQQYLLRRGEYPDYQQWMGLSDSIRSC [G50L] has an abundance fitness of -0.894 ± 0.27.
ITFYEDRAFQGRSYETTTDCPNLQPYFSRCNSIRVESGCWMLYERPNYQIQQYLLRRGEYPDYQQWMGLSDSIRSC [G50I] gave an abundance fitness of -0.806 ± 0.37.
Work on ITFYEDRAFQGRSYETTTDCPNLQPYFSRCNSIRVVSGCWMLYERPNYQGQQYLLRRGEYPDYQQWMGLSDSIRSC [E36V] yielded an abundance fitness of 0.008 ± 0.08.
With ITFYEDRAFQGRSYETTVDCPNLQPYFSRCNSIRVESGCWMLYERPNYQGQQYLLRRGEYPDYQQWMGLSDSIRSC [T18V] the abundance fitness was -0.03 ± 0.064.
In the case of ITFYEDRAFQGRSYETTTDCPNLQPYFSRCNSIRVESGCWMLYERPNYQGQQYLLRRGEYPDYQQWMGLSDSRRSC [I73R], the abundance fitness is reported as -0.854 ± 0.1.
ITFYEDRAFQGRSYETTTDCPNLQPYFSRCNSIRVESGCWMLYERPNYQGQQYLLRRGEYPDYQQWMGLSDSIASC [R74A] gave an abundance fitness of 0.039 ± 0.05.
In the case of ITFYEDRAFQGRSYETTTDCPNLQPYFSRCNSIRVESGCWMLYERPNYQGQQYLLRRGELPDYQQWMGLSDSIRSC [Y60L], the abundance fitness is reported as -0.247 ± 0.21.
Work on ITFYEDRAFQGRSYKTTTDCPNLQPYFSRCNSIRVESGCWMLYERPNYQGQQYLLRRGEYPDYQQWMGLSDSIRSC [E15K] yielded an abundance fitness of 0.165 ± 0.33.
In the case of ITFYEDRAFQGRSYETTTDCPNLQPYFSRCNSIRVESGCWMLYERPNYQGQLYLLRRGEYPDYQQWMGLSDSIRSC [Q52L], the abundance fitness is reported as -0.017 ± 0.11.
ITFYEDRAFQGRSYETTTDCPNLQPYFSRCNSIRVESGCWMLYIRPNYQGQQYLLRRGEYPDYQQWMGLSDSIRSC [E44I] gave an abundance fitness of -0.02 ± 0.26.
In the case of ITFYEDRAFQGRSYETTTDCPNLQPYFSRCNSIRVESGCWMLYERPNYQGQQYLLRRGEYPDYQQWMGLSISIRSC [D71I], the abundance fitness is reported as -0.106 ± 0.1.
ITFYEDRAFQGRSYETTTDCPNLQPYFSRCNSIRVESGCWMLYERPNYQGQQYLLRRGEYPDYQQWMGLSQSIRSC [D71Q] showed an abundance fitness of -0.121 ± 0.14.
Work on ITFYEDRAFQGRRYETTTDCPNLQPYFSRCNSIRVESGCWMLYERPNYQGQQYLLRRGEYPDYQQWMGLSDSIRSC [S13R] yielded an abundance fitness of 0.03 ± 0.066.
ITFYEDRAFQGRSYETTTDCPNLQPYFSRCNSIRVESGCWMLYERPNYQGQQYQLRRGEYPDYQQWMGLSDSIRSC [L54Q] gave an abundance fitness of 0.096 ± 0.26.
With ITFYEDRAFQGRSYETTTDCPNLQPYFSRCNSIRVESGCWALYERPNYQGQQYLLRRGEYPDYQQWMGLSDSIRSC [M41A] the abundance fitness was -0.07 ± 0.12.
ITFYEDRAFQGRSYETTTDCPNLQPYFSRCNSIRVESGCWQLYERPNYQGQQYLLRRGEYPDYQQWMGLSDSIRSC [M41Q] showed an abundance fitness of 0.046 ± 0.11.
ITFYEDRAFQGRSYETTTDCPNLQPYFSRCNSIRVESGCWRLYERPNYQGQQYLLRRGEYPDYQQWMGLSDSIRSC [M41R] gave an abundance fitness of -0.018 ± 0.069.
Work on ITFYEDRIFQGRSYETTTDCPNLQPYFSRCNSIRVESGCWMLYERPNYQGQQYLLRRGEYPDYQQWMGLSDSIRSC [A8I] yielded an abundance fitness of 0.001 ± 0.18.
Work on ITFYEDRAFTGRSYETTTDCPNLQPYFSRCNSIRVESGCWMLYERPNYQGQQYLLRRGEYPDYQQWMGLSDSIRSC [Q10T] yielded an abundance fitness of 0.034 ± 0.15.
ITFYEDRAFQGRSYETTTDCPNLQPYFSRCNSIRVESGCWMLYEHPNYQGQQYLLRRGEYPDYQQWMGLSDSIRSC [R45H] showed an abundance fitness of -0.057 ± 0.22.
ITFYEDRAFQGRSYETTTDCPNLQPYFSRCNSIRVESGCWMLYENPNYQGQQYLLRRGEYPDYQQWMGLSDSIRSC [R45N] showed an abundance fitness of -0.169 ± 0.19.
For ITFYEDRAFQGRSYETTTDCPNLQPYFSRCNSIRVESGCWMLYELPNYQGQQYLLRRGEYPDYQQWMGLSDSIRSC [R45L], the abundance fitness was -0.146 ± 0.13.
For ITFYEDRAFQGRSYETTTDCPNLQPYFSRCNSIRVESGCWMLYERPNYQGQQYLLRRGEYPDYQQQMGLSDSIRSC [W66Q], the abundance fitness was 0.046 ± 0.17.
ITFYEDRAFQGRSYETTTDCPNLQPYFSRCNSIRVESGCWMLYERPNYQGQQYLLRRGEYPDYQQVMGLSDSIRSC [W66V] showed an abundance fitness of 0.018 ± 0.077.
ITFYEDRAFQGRSYETTTDCPNLQPYFSRCNSIRVESGCWMLYERPNYQGQQYLLRRGEYPDYQQWMGWSDSIRSC [L69W] gave an abundance fitness of 0.098 ± 0.081.
With ITFYEDRAFQGRSYETTTDCPNLQPYFSRPNSIRVESGCWMLYERPNYQGQQYLLRRGEYPDYQQWMGLSDSIRSC [C30P] the abundance fitness was -0.079 ± 0.2.
